Experimental data as given in patent US20250051442A1 (UNIVERSITY OF TSUKUBA, published 2025).

T1: human DNAM-1 (human, UniProt Q15762 19-336)
T1 construct: whole, on cells; also called hDNAM-1; CD226
T1 sequence (looked up): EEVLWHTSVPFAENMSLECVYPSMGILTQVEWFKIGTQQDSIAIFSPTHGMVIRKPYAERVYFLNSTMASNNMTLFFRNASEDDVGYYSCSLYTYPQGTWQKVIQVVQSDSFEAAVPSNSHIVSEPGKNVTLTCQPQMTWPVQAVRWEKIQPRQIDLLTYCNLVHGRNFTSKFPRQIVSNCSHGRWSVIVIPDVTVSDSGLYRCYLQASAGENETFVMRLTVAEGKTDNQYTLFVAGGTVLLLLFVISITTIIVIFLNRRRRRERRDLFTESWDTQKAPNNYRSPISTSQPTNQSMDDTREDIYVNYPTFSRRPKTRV


Experiments:
[1] = biological target: T1, human DNAM-1; experiment: flow cytometry on hDNAM-1/BW cells, antibody purified from CHO-K1
Procedure: Binding to human DNAM-1 was examined by flow cytometry using a mouse lymphoblast BW5147 cell line (hereinafter, may be referred to as “BW”) and BW5147 stably expressing human hDNAM-1 (hereinafter, may be referred to as “hDNAM-1/BW”). Test antibodies at various concentrations were incubated with about […] hDNAM-1/BW cells at 4° C. for 1 hour in PBS (FACS buffer) containing 0.5% BSA and 0.05% NaN3. Thereafter, the cells were washed with ice-cooled FACS Buffer, and incubated at 4° C. for 30 minutes using a PE-labeled goat anti-human IgG antibody (manufactured by SouthernBiotech). After washing with FACS buffer, the stained cells were analyzed using a FACScan flow cytometer (manufactured by BD Biosciences).

[2] = biological target: T1, human DNAM-1; experiment: flow cytometry on BW5147 cells stably expressing human DNAM-1 (hDNAM-1/BW)

| EC50 [1] [µg/mL] | EC50 [2] [µg/mL] | Binder |
| --- | --- | --- |
| 5 |  | humanized anti-DNAM-1 antibody hAKB1-B (antibody, human IgG1, kappa, L234A L235A, V domains shown, Full chains without signal peptide; also called phAKB1-B (expression vector); hAKB1-VH2 + hAKB1-VL1) VH: QVQLQESGPGLVKPSETLSLTCTVSGYSISSGYYWNWIRQPPGKGLEWMGYISYDGSNNYNPSLKNRVTISRDTSKNQFSLKLSSVTAADTAVYYCARAYYGNYVGYFDVWGQGTTVTVSS VL: DIQMTQSPSSLSASVGDRVTITCKASQSVSNDVAWYQQKPGKAPKLLIYYASNRYTGVPSRFSGSGYGTDFTFTISSLQPEDIATYYCQQDYSSPLTFGGGTKVEIKR |
| 5 |  | humanized anti-DNAM-1 antibody hAKB1-A (antibody, human IgG1, kappa, L234A L235A, V domains shown, Full chains without signal peptide; also called phAKB1-A (expression vector); hAKB1-VH1 + hAKB1-VL1) VH: QVQLQESGPGLVKPSETLSLTCTVSGYSITSGYYWNWIRQPPGKGLEWMGYISYDGSNNYNPSLKNRVTISRDTSKNQFSLKLSSVTAADTAVYYCARAYYGNYVGYFDVWGQGTTVTVSS VL: DIQMTQSPSSLSASVGDRVTITCKASQSVSNDVAWYQQKPGKAPKLLIYYASNRYTGVPSRFSGSGYGTDFTFTISSLQPEDIATYYCQQDYSSPLTFGGGTKVEIKR |
|  | 6 | anti-human DNAM-1 monoclonal antibody mAKB1 (antibody, V domains shown, also called clone mAKB1) VH: DVQLQESGPGLVKPSQSLSLTCSVTGYSITSGYYWNWIRQFPGNKLEWMGYISYDGSNNYNPSLKNRISITRDTSKNQFFLKLNSVTTEDTATYYCARAYYGNYVGYFDVWGAGTTVTVSS VL: SIVMTQTPKFLLVSAGDRVTITCKASQSVSNDVAWYQQKPGQSPKLLIYYASNRYTGVPDRFTGSGYGTDFTFTISTVQAEDLAVYFCQQDYSSPLTFGAGTKLELKR |
